These results are taken from paper PMC9396398, “Crystal structure of Ankyrin-G in complex with a fragment of Neurofascin reveals binding mechanisms required for integrity of the axon initial segment” (The Journal of Biological Chemistry, 2022).

B1: Nfasc ankyrin-binding domain (ABD, residues 1187-1214) [not stated] / AnkG ANK repeats (residues 38-855, R1-24) [not stated] (parent complex)
chain 1: SDDSLVDYGEGGEGQFNEDGSFIGQYTV
chain 2: KSDANASYLRAARAGHLEKALDYIKNGVDVNICNQNGLNALHLASKEGHVEVVSELLQREANVDAATKKGNTALHIASLAGQAEVVKVLVTNGANVNAQSQNGFTPLYMAAQENHLEVVRFLLDNGASQSLATEDGFTPLAVALQQGHDQVVSLLLENDTKGKVRLPALHIAARKDDTKAAALLLQNDTNADIESKMVVNRATESGFTPLHIAAHYGNINVATLLLNRAAAVDFTARNDITPLHVASKRGNANMVKLLLDRGAKIDAKTRDGLTPLHCGARSGHEQVVEMLLDRAAPILSKTKNGLSPLHMATQGDHLNCVQLLLQHNVPVDDVTNDYLTALHVAAHCGHYKVAKVLLDKKANPNAKALNGFTPLHIACKKNRIRVMELLLKHGASIQAVTESGLTPIHVAAFMGHVNIVSQLMHHGASPNTTNVRGETALHMAARSGQAEVVRYLVQDGAQVEAKAKDDQTPLHISARLGKADIVQQLLQQGASPNAATTSGYTPLHLSAREGHEDVAAFLLDHGASLSITTKKGFTPLHVAAKYGKLEVASLLLQKSASPDAAGKSGLTPLHVAAHYDNQKVALLLLDQGASPHAAAKNGYTPLHIAAKKNQMDIATSLLEYGADANAVTRQGIASVHLAAQEGHVDMVSLLLSRNANVNLSNKSGLTPLHLAAQEDRVNVAEVLVNQGAHVDAQTKMGYTPLHVGCHYGNIKIVNFLLQHSAKVNAKTKNGYTPLHQAAQQGHTHIINVLLQNNASPNELTVNGNTALAIARRLGYISVVDTLKVVTEEIMTTTTITEKHKMNVPETMNEVLDMS
B2: Nfasc 1198 to 1214 WT [not stated] / AnkG ANK repeats (residues 38-855, R1-24) [not stated] (parent complex)
chain 1: GEGQFNEDGSFIGQYTV
chain 2: B1 chain 2

A word on the Kd: it is the concentration at which binding is half-saturated.

The variants in one experiment derive from B1. The experiment can be described thus: ITC; parent: 220 nM. A general note: ITC needs no label: the signal is the heat of the interaction.
chain 2 L306Q, chain 2 L339Q: the Kd was 2000 nM.

On to chain 2 V245Q, for which the Kd amounted to 1300 nM.

On to chain 2 I240Q, chain 2 L273Q, for which the Kd was 3000 nM. The same measure, in the same setting: under chain 2 H347A stands 1700 nM. Still for that read-out and setting: under chain 2 R281A, chain 2 Q314A stands 670 nM; under chain 2 T302A, chain 2 N304A, 2500 nM; under chain 2 M311Q, 1800 nM.

Another experiment covers variants of B2. Put plainly: ITC; parent: 340 nM.
Take chain 1 Y15E: the Kd amounted to 3200 nM. On the same count and under the same terms, under chain 1 E7A stands 9200 nM; under chain 1 N6A, 260 nM.

As to chain 1 D8K, the Kd turned out to be 7700 nM. Still for that read-out and setting: under chain 1 D8A stands 1300 nM. On the same count and under the same terms, under chain 1 T16A stands 460 nM. Same read-out and setting: under chain 1 F5Q stands 7100 nM; under chain 1 I12Q, 1000 nM. Take chain 1 F11Q: the Kd was 1400 nM.
